Tested on: MipZ dimer
Assay: Concentration dependence of the MipZ ATPase activity
Format: biochemical, Caulobacter crescentus
Protocol: Figure 2 Biochemical Analysis of MipZ Dimerization (A) ATPase cycle of MipZ. See the main text for details. (B and C) SPR analysis of MipZ self-association. MipZ or its mutant derivatives (3500 RU) were immobilized on a sensor chip and tested for homotypic interaction with the respective soluble protein (0.5 μM) in the presence of ADP (B) or ATP (C). After the binding phase, the chip was washed with buffer lacking protein and nucleotides to follow the dissociation reaction. The rate constants (koff) determined for the dissociation of the MipZ and MipZ-D42A complexes are 0.83 min^−1 and 0.067 min^−1, respectively. (D) Nucleotide-dependent dimerization of MipZ. MipZ-D42A was incubated with ADP (blue), ATP (orange) or ATPγS (red) and subjected to size exclusion chromatography. (E) ATPase activity of MipZ and its mutant derivatives. The graph gives the average turnover rate (kapp, average turnovers/min per molecule of MipZ) of the different MipZ derivatives (6 μM). Data represent the average of at least three independent experiments (±SD). Note that consistent with a critical role of the metal cofactor in dimerization and catalysis Mg^2+ was required for ATP turnover (Figure S2H). (F) Concentration dependence of the MipZ ATPase activity. The average turnover rate of MipZ (kapp) was determined at the indicated protein concentrations. Fitting of the data to a model that relates kapp to the relative abundance of dimers at the indicated MipZ concentrations (see the Experimental Procedures) yielded values of 8.0 μM (±1.2 μM) for the apparent equilibrium dissociation constant (K) of the MipZ dimer and 0.67 min^−1 (±0.03 min^−1) for the turnover number (kcat) of MipZ molecules in the dimeric state. The rate of dimer formation (kon ∼ kcat/K) derived from these values is 1.4 × 10^3 M^−1 s^−1. Data represent the mean of two independent experiments. See also Figure S2. TEXT PRINTED IN THE PICTURE: (F) MipZ: K = 8.0 μM; kcat = 0.67 min^-1 […]
According to the law of mass action, MipZ exists as a mixture of monomers (assumed to be largely in the ATP-bound state) and dimers, the equilibrium ratio of which depends on the total concentration of MipZ molecules in the reaction. […] Its average turnover rate (kapp) increased with rising protein concentrations and finally approached a plateau that likely reflects a situation in which all MipZ molecules have transitioned to the active, dimeric state. […]
β-galactosidase, MipZ, and FtsZ activity assays are detailed in the Supplemental Experimental Procedures. […]
obtained from crystals flash frozen in a solution of 95% 2 mM, sa mp le s were taken and analyzed for the amount ethanol/50 mM Tris (pH 8.5), and collected at ID23-2, of [α-32P]-GDP produced in the reaction as described ESRF (Grenoble, France). […]

B1: MipZ: P loop ATPase and cell division inhibitor of Caulobacter crescentus; hexahistidine-tagged in vitro, YFP fusion in FRAP (protein)
chain: MAETRVIVVGNEKGGAGKSTIAVHLVTALLYGGAKVAVIDLDLRQRTSARFFENRRAWLDNKKIELPEPLALNLSDNDVALAERPEEEQVAGFEAAFARAMAECDFILIDTPGGDSAITRMAHGRADLVVTPMNDSFVDFDMLGTVDPVTLELTKPSLYSLTVWEGRKQRALSGQRQAMDWVVLRNRLATTEARNRKRLEDRLNALAKRVGFRIGPGLRDRVIYRELFPFGLTIADLSPQVRPVPVSLQHLAARQELRALMHSLGLSAYSGETMLAAQ
modifications: left off: His6, end not stated, state not stated
notes: hexahistidine-tagged in vitro, YFP fusion in FRAP
turnover number (kcat) of MipZ molecules in the dimeric state (ATP hydrolysis, fit of kapp vs MipZ concentration): 0.67 min⁻¹
rate of dimer formation (kon ∼ kcat/K) (derived from K and kcat): 1400 M⁻¹ s⁻¹
Kd (fit of kapp vs MipZ concentration, 2 mM ATP, read-out: apparent equilibrium dissociation constant (K) of the MipZ dimer): 8 µM
lifetime of the sandwich dimer (τ ∼ 1/kcat) (hydrolysis-driven dissociation): ~90 s

— publication PMC3355305, “Localized Dimerization and Nucleoid Binding Drive Gradient Formation by the Bacterial Cell Division Inhibitor MipZ” (Molecular Cell, 2012)
